Test results: the supplement of paper PMC9732359
± gives the uncertainty stated by the source.

Assay: protein stability index of a GFP-peptide fusion (yeast GPS) (PSI 1-4); higher = more stable; sorted into four equal gates, so the index is relative within each strain
Method in brief: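 Yeast carrying a pooled library were grown to mid-log phase in leucine-free medium. Each library plasmid expresses Cherry and has a tiled 17-residue yeast protein peptide fused downstream of GFP. Cells were sorted into four equal gates by GFP/Cherry ratio, and plasmids from each gate were PCR-amplified, Illumina-sequenced and assigned to strains by barcode. Summing, across gates, the read frequency times the gate number gave each peptide's protein stability index.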

Row | Sequence | protein stability index (doa10∆) | protein stability index (pdr5∆) | protein stability index (san1∆) | protein stability index (ubr1∆)
1 | SNRLHPPDIHPNLGPQL [GRR1] | 3.12 ± 0.074 | 3.09 ± 0.059 | 3.01 ± 0.054 | 2.98 ± 0.049
2 | SNSTPNANQQFLPFNNS [SWI1] | 3.25 ± 0.072 | 3.19 ± 0.058 | 2.96 ± 0.059 | 2.94 ± 0.052
3 | SNSVFSPDGRNFQVEYA [PRE10] | 3.04 ± 0.057 | 2.91 ± 0.059 | 2.87 ± 0.049 | 2.79 ± 0.054
4 | SNYDWLFQLLNALTVGD [RPN9] | 2.34 ± 0.076 | 2.52 ± 0.075 | 2.2 ± 0.083 | 2.56 ± 0.048
5 | SPAALKQLASLKKSEEI [YMR153W/NUP53] | 2.2 ± 0.23 | 2.85 ± 0.13 | 2.65 ± 0.17 | 3.37 ± 0.15
6 | SPASGIVDKYIGESARI [RPT4] | 2.95 ± 0.27 | 2.84 ± 0.18 | 2.45 ± 0.16 | 
7 | SPELKAELRPLQFKSIR [RPS7A] | 2.91 ± 0.11 | 3.54 ± 0.11 | 2.61 ± 0.14 | 3.07 ± 0.12
8 | SPFFVLDEVDAALDITN [SMC1] | 2.39 ± 0.093 | 2.78 ± 0.071 | 2.63 ± 0.066 | 2.69 ± 0.057
9 | SPMLKRIKITANNNMND [GRR1] | 2.36 ± 0.055 | 2.4 ± 0.078 | 1.77 ± 0.079 | 2.71 ± 0.048
10 | SPRNTYQCAMGKQAIGA [RET1] | 1.94 ± 0.14 | 2.57 ± 0.14 | 2.83 ± 0.15 | 
11 | SPSYSPTSPAYSPTSPS [RPO21] | 2.93 ± 0.05 | 2.85 ± 0.052 | 2.81 ± 0.048 | 3.08 ± 0.032
12 | SPSYSPTSPNYSPTSPS [RPO21] | 2.85 ± 0.039 | 2.94 ± 0.04 | 2.97 ± 0.033 | 3.024 ± 0.026
13 | SPTESYSDIGGLESQIQ [RPT2] | 3.3 ± 0.14 | 3.53 ± 0.14 | 3.41 ± 0.06 | 3.29 ± 0.076
14 | SPYAAMLAAQDVAAKCK [RPS14A] | 2.28 ± 0.05 | 1.82 ± 0.048 | 1.62 ± 0.067 | 1.88 ± 0.048
15 | SQASSDLGETFRGIIRS [CSL4] | 3.17 ± 0.14 | 2.96 ± 0.081 | 3.3 ± 0.096 | 3.24 ± 0.073
16 | SQDTKVICSVTGPIEPK [RRP46] | 1.68 ± 0.07 | 1.72 ± 0.072 | 1.94 ± 0.11 | 2.12 ± 0.076
17 | SQLQPQPQPQPQQQQQH [YDL088C/ASM4] | 2.79 ± 0.087 | 2.95 ± 0.074 | 2.51 ± 0.13 | 2.88 ± 0.088
18 | SQPSKKSFANHTEDEQI [SIR4] | 2.81 ± 0.059 | 2.84 ± 0.052 | 3.08 ± 0.059 | 2.83 ± 0.052
19 | SQQAGLDPYERAIYSYL [YDL116W/NUP84] | 2.81 ± 0.12 | 3.19 ± 0.083 |  | 2.83 ± 0.099
20 | SREIAQPSSSRYNGGND [SMB1] | 3.19 ± 0.087 | 3.22 ± 0.071 | 3.22 ± 0.053 | 3.31 ± 0.055
21 | SRGESDDSLNRLAQNDG [RPS21A] | 2.72 ± 0.19 | 2.9 ± 0.14 |  | 
22 | SRIYKTIKVAGTPLLEV [SNU114] | 2.21 ± 0.052 | 2.38 ± 0.055 | 2.03 ± 0.071 | 2.23 ± 0.053
23 | SRKAHGLNAKQLYKARM [POP1] | 3.03 ± 0.094 | 3.4 ± 0.12 | 2.96 ± 0.05 | 2.83 ± 0.034
24 | SRKGIAFGLGAIMSKSS [ECM29] | 1.61 ± 0.058 | 1.86 ± 0.054 | 1.64 ± 0.08 | 1.74 ± 0.036
25 | SRKRAKKMTKKAKRSNL [PRP8] | 2.94 ± 0.07 | 2.16 ± 0.069 | 2.11 ± 0.094 | 2.52 ± 0.082
26 | SRKRKPKSASNTSSKRQ [IRR1] | 2.86 ± 0.1 | 2.7 ± 0.14 | 2.89 ± 0.085 | 3.09 ± 0.069
27 | SRPASYGYFSVGKRVPI [SIR4] | 2.31 ± 0.19 | 2.14 ± 0.11 | 2.15 ± 0.13 | 
